Test results published in the supplement of paper PMC12636428.

The sequences below were run on Saccharomyces cerevisiae (assay: transcriptional activation domain activity (GFP:mCherry ratio, weighted mean of sorted bins, harmonized to initial dataset scale) (arbitrary fluorescence ratio units); higher = stronger transcriptional activation). Conditions: beta-estradiol 1 µM; induction time 4 h.
In short: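 For this assay, yeast diploids with a GFP reporter carried barcoded protein tiles at URA3, each fused to an estradiol-inducible synthetic transcription factor. Induction was a 1:5 dilution into SC with 1 uM beta-estradiol for 4 hours at 30 °C, followed by sorting into 8 bins by GFP:mCherry ratio and barcode sequencing. Tiles under 50 reads were dropped, and activation activity was calculated as the read-weighted mean of bin median fluorescence, averaged across barcodes and linearly mapped onto the initial dataset scale.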

Going from “VIYTSFFLYIYTPFIPFFFLFFFFLLLIPTFYIYMKRVLYYGLILWWFIQYSL” to “LFGCVVSNVNGSSYLGLVYVIFMLYEGGLLLAMIKWRISTWIIYYICAFCLSL”, the “transcriptional activation domain activity” value rises from 51700 to 59600.

First: SFFFFFSYFYLDSLFLVLLPFTLCFYLFLVLWVCWLVGWFVGWLARFALSLSL
Second: ITHCPSTRVAYTYIVGLSTNAVMIGFVLCPHCFLAFQNPSQTLWFLSLFLLCL
The “transcriptional activation domain activity” value of the first is higher: 55400 for the first, 47700 for the second.

First: DDSAASHAESKEARDGANEADTSSTGGEADSALKESNTKAERRQDKKEEEASG
Second: GRRGSKAVPGEVSEAEANGDAPQTEATPAPESDDAAKPKKKKKSKAARKAKKA
The “transcriptional activation domain activity” value of the first is lower: 34100 for the first, 36100 for the second.

First: HGRARPSRASASVPARKKTKSKVKKRASAAVVGSDDEDGEERPKKRRGGGGGA
Second: MALIAFFLLFYLINLLYSLKLFLQYFFFTFTIPYLYIAYAFFFILYSLFLVFS
The “transcriptional activation domain activity” value of the first is lower: 33100 for the first, 42900 for the second.

Going from “MILMIFTYLLLTIPVVVGLIVASLLHFNFIHLNVLYACSLTSLQLINPCMVLF” to “RDALSGDPTAPRKRSKVSRACDECRRKKIRCDASSESGIEQCSSCKRVGSKCS”, the “transcriptional activation domain activity” value falls from 50000 to 43500.

First: ACAVLLSVVDGLTPLSIICASCSTTGAYWFCCFSMRFFVFIDLLGTLLLYLII
Second: FFSFPSFLLLPPPLSSLPFPSPFLSLLLSLLAFPAAFFPLFSLSSLLNIFPTT
The “transcriptional activation domain activity” value of the first is higher: 74900 for the first, 58500 for the second.

Going from “VRRLLWVTVIFDICFGMLYVLLAIFQCRPISYYWLGWDGEHQGTCLNVNGLAW” to “GGRGGGRGGRGGGGRGGRDRDGGRGGGRGRGGRGGGEGEEVVGTEGKDGGAEA”, the “transcriptional activation domain activity” value falls from 46600 to 18300.

First: MWVLGRSWAVLSTFFLSLLRLFFCLLFLLGLDFWSGLLPFLCFFLLCSYCFSL
Second: YLIIISFFSFSFYLLIHMQYINPKGHPPLKFYQLIIWRWCATMCAYFFLSLAY
The “transcriptional activation domain activity” value of the first is lower: 56400 for the first, 62000 for the second.

First: AVLSLLCSLLNTTLKYNPASWRVPYDHVVFKDPKQILVTYCLQLLLVLILYPI
Second: MFAKILVLSWFDSIRWGLFLLLCVMGVFLLFDIPFFLFPTCFLCLVFPFLLAK
The “transcriptional activation domain activity” value of the first is higher: 37500 for the first, 20400 for the second.

Going from “PFVTRCQRNIRIACLICFFFTYSLFHLAFYVGLERRNVPVPLGNHFWSVYGFA” to “TLPQEDTQSTEDTKVEKKLVIASLLSRMLIPTIIMAPLLALTAKFVPVSILDD”, the “transcriptional activation domain activity” value rises from 38200 to 52400.

First: NRPGQKSIQVLNQYIGIDIGKCYLCGRLCVNLSYVCWSSPQLLYNCRMVMITR
Second: STTYYVLSLITFSSFPSIMVSYYSLLFSFFFISLCFLFPLPFVSSLFSHLILF
The “transcriptional activation domain activity” value of the first is higher: 41000 for the first, 40300 for the second.

Compared with “SLDALHIIFVAHSLYWYLVLNYITPLALLSIVWSFHLQIAINIMLIASVQTAY”, “EAEVTATGEKSSPARVVVLRARAADAGKLVSIAEIAKREIEKGTGGQGGGSGG” is lower in “transcriptional activation domain activity” value: 37300 for the first, 18100 for the second.

Compared with “MTGFSFLLMTFFFFLFFLFFFFISLFLLFFPLFSSHSLFFRLLAICSGLWCSG”, “VSASVVYLFFIFIFSLSYPILSCPYLLTHSLTLSILPPFSFPLPFFFLSFFLP” is lower in “transcriptional activation domain activity” value: 60000 for the first, 58800 for the second.

Going from “TSIFGSNNNTGGTMFGSNTNTSSPFGGGGTSNTSIFARRFALSLALLRSPTSY” to “RPPPPSAAAEPAADAPATEEAKPGHEKKEKTEKKPKEKAKKAEKKEEVCAAAT”, the “transcriptional activation domain activity” value falls from 30900 to less than 6570.

Going from “KNEKADKAEKTEKTEQQQSSGARRNRRGRGGNRGGEGGKESKEGGRPAAAAKT” to “KVAEPGSKVSLRAPVDPNAPAPKPKKGKDGKEIKEEPKMIEKVVDSIYLHVQT”, the “transcriptional activation domain activity” value rises from 11200 to 41000.

Going from “LALLTPGPSHVDPEYGTFQSLLFFFGLCTFLTTLTGIASSYIFWLYCSVLLLA” to “MGNFLYGFCVIFPYNLVYIIICYFGGITQVVNAGFGYMLLLIVLWTHGQLCLS”, the “transcriptional activation domain activity” value falls from 52100 to 38600.

Compared with “NIIALFLVTNQLTTCSVLPLCMGLFKVFDGFVSEGAVLFGSIFAFFSVLVHGY”, “STRNYKLYIGNTVFFCGGRFLTSRAFWAFGLSLFLINMPAILFIIFSCPWLWY” is lower in “transcriptional activation domain activity” value: 61300 for the first, 55900 for the second.

First: FVYSLCIRYLLAPTPTFQEHGVSPRRSTGIALITLFFIILVIFLLTWMRLIHI
Second: WLRPPRWACGRRALLLLSMGLGTVMLLILTGLLTMNQSNGAKLPVVMVFVILF
The “transcriptional activation domain activity” value of the first is higher: 45100 for the first, 32600 for the second.

Compared with “NWYKHINWLNTFFVVIMPMLGFIAAYWVPLHRYTALFAIFYYVHCGLGITAGY”, “KIISAFGWNADKHLGFALLQLCMDGNRIRSPLAAMMLLMYYVTLMTHCPQILT” is lower in “transcriptional activation domain activity” value: 68500 for the first, 63700 for the second.

Compared with “GEGRAGGGRGGRKDSRDDRRGNRNSSNERDRSRNRRNSNGNNRSKKNDSDRGR”, “LLKGLTLRNPAILKLEEDEDEAALLTQYAVKCSEVDKFLLTYVILKLKLIKGK” is higher in “transcriptional activation domain activity” value: 24400 for the first, 33200 for the second.

First: MWTQASVATLPTLPFTGISLSYFPCLFLLFSPDIFIFLFFLLFIYLFIFSFLL
Second: VHNNSNNSNNSNISASDYTVANNSTSNNNNNNNNNNNNNNNIHPNQFTAAANM
The “transcriptional activation domain activity” value of the first is higher: 55900 for the first, 39200 for the second.

Compared with “LFLSLSSACPSFFPLLPFPFLLAFLITFLAPFPSFLSLLVPHSVPIPLSLPTS”, “DISKLAIETFYFFFLFLLSFLFSFLFFSFLFLIFFNFLYSSFFLSFFLSFFLF” is lower in “transcriptional activation domain activity” value: 49800 for the first, 33900 for the second.

Going from “YPKALPFYGKILGYMTSIYDTIARLAFLKTLQPQGPLDYMLWLVIMTATRIFY” to “KSSEAAPAEENKPSPEKNGKGKQGEDKGGNNGKENKGGDKGGGKGAQSKKGKK”, the “transcriptional activation domain activity” value falls from 53800 to 31600.

Compared with “RLSTFYNLNLIRVLFRFLFTLPLLILAHDFLLMLGALGCFVSSCITLLIFFPR”, “MTSPPLIKEEQTSSDESQIQQQSKTRRPKTRASVACTSCRDRRIRCVVPSGKK” is lower in “transcriptional activation domain activity” value: 63000 for the first, 55700 for the second.

Going from “MSYFVFPLLLPSLPRVLPRHSICILHFLLHFRTPPSPNLTHSLLIFLFLLLVR” to “VRVLNQLKLLLYCTLLSPVYAFKPYRNLYYTFLRKNLLGVVGGYNCAGHNLAI”, the “transcriptional activation domain activity” value falls from 64000 to 55500.

Compared with “MSLLYYMVQSTTTMLLLTPPLCFTFFFIFFLLIFLFFIFYFLFLFYFINRDQS”, “VQVDDRSIMVSELAVKLGRNFRAQLAILVLFRVVTSKEHIIRKGWKDIIRIWL” is higher in “transcriptional activation domain activity” value: 47600 for the first, 62200 for the second.

Compared with “MALEQRCQPTCEAVLLFLLLLFLPLWLLFERFKNLLLLLWPLFFFFFLLLLLW”, “ASASASASRHKKDKDRKKKHKEKDGKSSKHKKHKSSSRRSRSRSRDKDRHGDR” is lower in “transcriptional activation domain activity” value: 35100 for the first, 33300 for the second.

Compared with “KPKPKPKQYPKVILPSNSTRRVSPVTAKTSSSAEGVVVASESPVIAPHGSSHS”, “QNLFGYLERSLNRSTKLRATGMLKEGMVRIFIQKIEGSPFEVTMQFARKFFTA” is lower in “transcriptional activation domain activity” value: 47200 for the first, 35900 for the second.

Going from “SLVDFHKFFKWLLLKVVKGLNKLRNLHNERPKELQTNEMEHLLNLMKIVRFFA” to “MILTLFALCFFFLDTSSCFLHFISIVSFLISLILCLFFFFFLVASEPFHFIPS”, the “transcriptional activation domain activity” value rises from 46500 to 57900.

First: APDQPLTTQGKPRTRVYVACIQCRSRKIRCDGAKPVCHNCSHRASSAVGGVLE
Second: QRKLLWMCVHNIESLVCLGTGRGISSKITDNMLGMLISTKIFNLAEAGLRLEI
The “transcriptional activation domain activity” value of the first is lower: 18000 for the first, 67000 for the second.

Going from “EKKEGAEKEGGEKKEAGGEGEKKVGGEGEKKEGGEGEMKESGVEGGKKEASES” to “MLLYTFILIVHIHRDLGSIDFVWKARNETASLRQRYLAVNYQLLFGVIKYLWA”, the “transcriptional activation domain activity” value rises from 26600 to 33400.

Compared with “FREELVHFFKDPNFDPKLAFESSSYIVNHVLKLTLVMWRYLLVKVEHSFLIAM”, “GLDCDKQHVRECPDFAERGTCATRGCKLPHVIRANRNRKAPAPAAQKSTSTST” is lower in “transcriptional activation domain activity” value: 59800 for the first, 25500 for the second.

First: ASDKQETSSQPEGGKEKEAAKEEKKPEPKKEEPKQESKPAPAPKQEKKPEPKK
Second: TLPGGTTGEFGRDRPTTNAFGSSTGAFGAPAANNNPFGAPAQPAGAFGQPSAL
The “transcriptional activation domain activity” value of the first is lower: 32600 for the first, 44800 for the second.

Going from “STGLKPQDPSSDGLRKLALLNILLSGEEDVVSTIPAQRLVFLVKHLLECLKSD” to “LAYLVMQGFFRTFGLMCFNFDSAFRLAVFFIPNFVEYTGYILPVISMQRWLFW”, the “transcriptional activation domain activity” value rises from 24800 to 63100.

Going from “ICGSVLKELEHKPFFIWFLRCVYHKVLVVLKNGPSAVVSVAEVQRPPQIGDEV” to “LDKKSGRLIKHSLCFTYKDLELLTRFFKEDHVIHPTIKAYVLAACTVLFHLLL”, the “transcriptional activation domain activity” value rises from 30400 to 62500.

Going from “EKRHEKKKGSRDISGADDRSSGRSKDRRDHSSRGSSRKRHGSRRDKDRDLEDG” to “AGGAFETGGKRRKGKEKVRLDYNAIAGGQVALVKDDLELLIVHLLISRYLGEA”, the “transcriptional activation domain activity” value falls from 25700 to 19000.

Compared with “ILHCFIIPLLFLVGFLSFLSLPCLLAVAFLIFMSILNLLLLGFLLLLWILLFF”, “MLLFIFWRLLYFFILGSLLRAQSRRKWLVRWCREHGFGPNPRRPRSGWVTFWV” is higher in “transcriptional activation domain activity” value: 41200 for the first, 59600 for the second.

First: ADSKTRNKRDGSNSTTSRSRSSRSRGEAVDDDGSSSSKRSSRSSRTDEGGAAR
Second: MPNLGLRREWYKGDFSVKYTQLTLIYLVMCVWFPSCLGGYMLTLQYIMLLLIM
The “transcriptional activation domain activity” value of the first is lower: 41400 for the first, 68600 for the second.

First: LCILVYLSHVSYLTLLPRFDYLYNIIFNMVIGLSHNALWLVYSLPISAFRRFP
Second: MLRPYFFSPHFLLFVLVSAFNPGYYPPSLQFLSIICLYIFICPPPFFFISFPP
The “transcriptional activation domain activity” value of the first is higher: 75800 for the first, 50800 for the second.

Going from “TASSGTRATTTSSAPRSRRTHTTPLRAAQARAPRCRTARARTSCGSTPTARRS” to “PFLPSSLPPFLPSSLPPFLPSSLPPFLPSSLPPSLLFSFLFSFPLPSPPSLPL”, the “transcriptional activation domain activity” value rises from 23800 to 64000.

Going from “MPPAPKSPQPRRPGAPKSKGAVRAKSGCYTCRIRRKKCDEQMNAEGSCSTCVR” to “DSDGDEEPGKKRQKTALSCGECKRRKIKCDRKVPCVSCIKRGEPEKCNWEEAR”, the “transcriptional activation domain activity” value falls from 42800 to 30900.

“ERGTEEREKEREEGMRGRRGKRNRGRWKREGEEEGGEEEGRKGRKEKGRQGAE” was tested, and the “transcriptional activation domain activity” value was 47700.
